Legend:
Assay in all cases: co-IP (anti-FLAG) in HEK293T cells, band intensity quantified
Conditions in all cases: parent: est. 1.0; read off a plot
[1] = target: mouse HA-tagged M1AP (UniProt Q9Z0E1)
[2] = target: mouse HA-tagged REDIC1 (UniProt A0A087WRU1)
[3] = target: human HA-tagged REDIC1 (UniProt Q86WS4)
[4] = target: human HA-tagged M1AP (UniProt Q8TC57)
Chain of UniProt Q8TC57 (Q8TC57 whole entry): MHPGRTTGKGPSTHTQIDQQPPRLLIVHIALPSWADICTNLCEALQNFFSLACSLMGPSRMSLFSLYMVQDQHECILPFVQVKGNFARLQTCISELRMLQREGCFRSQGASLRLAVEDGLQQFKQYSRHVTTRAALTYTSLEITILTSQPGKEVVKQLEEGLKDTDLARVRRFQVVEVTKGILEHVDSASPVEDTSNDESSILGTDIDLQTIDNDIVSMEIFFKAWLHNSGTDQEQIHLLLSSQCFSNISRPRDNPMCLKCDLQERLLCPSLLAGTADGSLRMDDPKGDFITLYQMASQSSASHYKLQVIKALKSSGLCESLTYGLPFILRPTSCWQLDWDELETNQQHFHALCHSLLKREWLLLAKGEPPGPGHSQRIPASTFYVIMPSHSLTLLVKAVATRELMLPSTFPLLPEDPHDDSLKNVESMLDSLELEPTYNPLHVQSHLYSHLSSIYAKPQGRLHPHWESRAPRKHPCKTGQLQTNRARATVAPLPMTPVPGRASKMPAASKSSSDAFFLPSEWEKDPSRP

Chain of UniProt Q9Z0E1 (Q9Z0E1 whole entry): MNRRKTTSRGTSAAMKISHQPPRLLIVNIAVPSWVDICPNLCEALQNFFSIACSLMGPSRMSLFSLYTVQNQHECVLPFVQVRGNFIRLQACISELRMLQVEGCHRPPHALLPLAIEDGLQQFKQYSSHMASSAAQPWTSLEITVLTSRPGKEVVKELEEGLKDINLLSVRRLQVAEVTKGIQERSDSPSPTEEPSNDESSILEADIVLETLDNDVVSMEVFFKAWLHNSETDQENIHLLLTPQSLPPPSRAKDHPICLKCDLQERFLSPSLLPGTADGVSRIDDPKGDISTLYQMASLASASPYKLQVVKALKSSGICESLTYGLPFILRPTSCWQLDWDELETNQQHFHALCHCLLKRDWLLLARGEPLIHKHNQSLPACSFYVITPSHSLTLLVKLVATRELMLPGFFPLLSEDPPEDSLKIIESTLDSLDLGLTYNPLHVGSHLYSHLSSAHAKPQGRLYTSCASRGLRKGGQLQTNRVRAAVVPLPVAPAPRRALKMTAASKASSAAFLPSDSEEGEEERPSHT
Chain of UniProt A0A087WRU1 (A0A087WRU1 whole entry): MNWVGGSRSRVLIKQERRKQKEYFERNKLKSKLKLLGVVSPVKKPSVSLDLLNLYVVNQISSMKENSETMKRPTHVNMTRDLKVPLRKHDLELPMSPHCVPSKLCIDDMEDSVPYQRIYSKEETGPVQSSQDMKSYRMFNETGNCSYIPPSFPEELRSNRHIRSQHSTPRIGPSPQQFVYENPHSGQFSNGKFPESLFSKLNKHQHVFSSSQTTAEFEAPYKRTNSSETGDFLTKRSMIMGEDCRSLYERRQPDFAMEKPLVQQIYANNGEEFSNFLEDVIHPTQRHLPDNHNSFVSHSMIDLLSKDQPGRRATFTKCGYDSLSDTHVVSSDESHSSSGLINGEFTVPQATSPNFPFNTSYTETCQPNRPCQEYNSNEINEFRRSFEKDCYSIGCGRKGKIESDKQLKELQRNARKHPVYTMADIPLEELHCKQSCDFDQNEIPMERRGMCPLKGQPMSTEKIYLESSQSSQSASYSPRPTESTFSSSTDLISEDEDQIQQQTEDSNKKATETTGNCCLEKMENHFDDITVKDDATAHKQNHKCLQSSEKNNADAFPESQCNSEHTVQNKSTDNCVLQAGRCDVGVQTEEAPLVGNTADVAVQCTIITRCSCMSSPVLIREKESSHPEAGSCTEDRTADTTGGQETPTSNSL
Chain of UniProt Q86WS4 (Q86WS4 whole entry): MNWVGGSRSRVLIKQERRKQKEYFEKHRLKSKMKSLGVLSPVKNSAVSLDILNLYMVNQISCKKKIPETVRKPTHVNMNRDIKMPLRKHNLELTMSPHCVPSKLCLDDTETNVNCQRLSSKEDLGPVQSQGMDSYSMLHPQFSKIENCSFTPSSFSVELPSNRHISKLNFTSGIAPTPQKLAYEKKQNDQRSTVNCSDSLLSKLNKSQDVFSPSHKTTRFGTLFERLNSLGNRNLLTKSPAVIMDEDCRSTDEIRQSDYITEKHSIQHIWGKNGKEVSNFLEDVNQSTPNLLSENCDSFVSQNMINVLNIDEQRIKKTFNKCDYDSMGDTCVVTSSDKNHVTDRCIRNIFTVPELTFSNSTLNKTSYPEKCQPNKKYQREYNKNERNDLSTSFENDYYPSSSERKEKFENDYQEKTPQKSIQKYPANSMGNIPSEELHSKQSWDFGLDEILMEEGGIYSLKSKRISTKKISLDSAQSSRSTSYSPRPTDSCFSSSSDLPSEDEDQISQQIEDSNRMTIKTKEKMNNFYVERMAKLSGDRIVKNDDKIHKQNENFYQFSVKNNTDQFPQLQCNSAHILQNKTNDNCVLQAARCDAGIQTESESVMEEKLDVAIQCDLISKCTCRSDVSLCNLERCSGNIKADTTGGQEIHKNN

| ratio to parent [1] | ratio to parent [2] | ratio to parent [3] | ratio to parent [4] | Substance |
| --- | --- | --- | --- | --- |
| 0.5 | 1.1 | – | – | mouse SHOC1-XPF (WT, FLAG-tagged) Q646R |
| – | – | 1 | 0.44 | human SHOC1-XPF (WT, FLAG-tagged) Q590R |
